This is an account of results in article doi:10.1101/2025.05.14.653996.

A value given as a limit tells only on which side of the number the result lay.

The test deals with actin filament, unlabelled segment of recombinant cytoplasmic β-actin (UniProt P60709). The test is described as follows: TIRF microscopy of single actin filaments under flow in a microfluidic chamber.

sfGFP-Tpm1.6 (natural protein): the cluster detachment, fold faster at 50 mM KCl than at 100 mM KCl amounted to 36 fold and the fold decrease of the median detachment time from 0.01 to 0.04 pN per Tpm dimer is > 100 fold.
sfGFP-Tpm1.7 (natural protein): the cluster detachment, fold slower than sfGFP-Tpm1.6 came to 5.5 fold.
